Measured values published in patent publication US20220356266A1 (Janssen / Centocor, published 2022).

Columns and labels:
Assay in all cases: cell-based or functional assay
KLK2 on VCaP cells [1] = molecular target: T1, KLK2 on VCaP cells (UniProt P20151 25-261, limits assumed)
KLK2 on VCaP cells [2] = molecular target: T1, KLK2 on VCaP cells; remark: listed apart in the source
[3] = molecular target: PSMA on C42B and LNCap cells (UniProt Q04609 1-750, limits assumed)
Sequence of PSMA on C42B and LNCap cells (Q04609 whole entry): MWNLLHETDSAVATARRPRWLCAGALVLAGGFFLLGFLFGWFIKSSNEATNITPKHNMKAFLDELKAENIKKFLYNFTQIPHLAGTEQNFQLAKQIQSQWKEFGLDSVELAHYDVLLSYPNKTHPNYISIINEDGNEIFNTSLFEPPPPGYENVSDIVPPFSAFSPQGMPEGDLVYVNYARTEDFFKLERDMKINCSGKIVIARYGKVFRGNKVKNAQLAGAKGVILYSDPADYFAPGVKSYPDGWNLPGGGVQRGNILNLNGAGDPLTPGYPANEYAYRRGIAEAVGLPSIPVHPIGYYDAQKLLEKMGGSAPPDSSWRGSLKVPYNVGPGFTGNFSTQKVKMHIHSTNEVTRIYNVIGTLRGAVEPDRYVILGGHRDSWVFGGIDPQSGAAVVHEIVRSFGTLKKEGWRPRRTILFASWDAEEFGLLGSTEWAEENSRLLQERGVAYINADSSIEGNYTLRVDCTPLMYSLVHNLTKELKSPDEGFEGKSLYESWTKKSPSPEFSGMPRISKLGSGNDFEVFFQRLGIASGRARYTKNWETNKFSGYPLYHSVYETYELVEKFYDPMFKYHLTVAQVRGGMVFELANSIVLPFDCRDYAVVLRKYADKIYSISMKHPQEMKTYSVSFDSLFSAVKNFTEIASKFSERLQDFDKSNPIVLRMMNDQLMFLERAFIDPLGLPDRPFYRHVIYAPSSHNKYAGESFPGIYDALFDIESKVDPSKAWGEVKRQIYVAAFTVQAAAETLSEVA

T1 sequence (P20151 25-261 limits assumed): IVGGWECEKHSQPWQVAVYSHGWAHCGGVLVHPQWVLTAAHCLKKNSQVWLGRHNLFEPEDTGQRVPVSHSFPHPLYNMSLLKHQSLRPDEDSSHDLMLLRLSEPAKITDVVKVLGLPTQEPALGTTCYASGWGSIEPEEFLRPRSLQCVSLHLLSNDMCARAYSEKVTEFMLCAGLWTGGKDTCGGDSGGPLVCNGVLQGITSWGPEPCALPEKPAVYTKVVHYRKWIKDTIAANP

| Binder | ADCC activity, percent cell killing of VcaP cells by PBMC (KLK2 on VCaP cells [1]) [%] | EC50 (M), in vitro ADCC dose-response killing by PBMC on VcaP cells at 48 hour (KLK2 on VCaP cells [2]) [M] | In vitro ADCC killing EC50 (M), NK cells at 24 hour, C42B cells [3] [M] | In vitro ADCC killing EC50 (M), NK cells at 24 hour, LNCap cells [3] [M] | In vitro ADCC killing EC50 (M), PBMC at 6 hour, C42B cells [3] [M] | In vitro ADCC killing EC50 (M), PBMC at 6 hour, LNCap cells [3] [M] |
| --- | --- | --- | --- | --- | --- | --- |
| KL2B870 (KL2B30 in hIgG1-RE) (antibody) heavy: not shown light: DIQMTQSPSFLSASVGDRVTITCRASQGISSYLAWYQQKPGKAPKFLIYAASTLQSGVPSRFSGSGSGTEFTLTISSLQPEDFATYYCQQLNSYPLTFGGGTKVEIKRTVAAPSVFIFPPSDEQLKSGTASVVCLLNNFYPREAKVQWKVDNALQSGNSQESVTEQDSKDSTYSLSSTLTLSKADYEKHKVYACEVTHQGLSSPVTKSFNRGEC | ~73 | 1e-09 |  |  |  |  |
| PSMB952 (antibody, V domains shown) VH: EVQLVESGGGLVQPGGSLRLSCAASGFTFSSYAMSWVRQAPGKGLEWVSAISGGIGSTYYADSVKGRFTISRDNSKNTLWLQMNSLRAEDTAVYYCAKDGVGATPYYFDYWGQGTLVTVSS VL: QSVLTQPPSVSAAPGQKVTISCSGSSSNIGINYVSWYQQLPGTAPKLLIYDNNKRPSGIPDRFSGSKSGTSATLGITGLQTGDEADYYCGTWDSSLSAVVFGGGTKLTVL |  |  | 2.45e-11 | 4.59e-11 | 3.51e-10 | 2.01e-10 |
| PSMB956 (antibody, V domains shown) VH: EVQLVESGGGLVQPGGSLRLSCAASGFTFSSYAMSWVRQAPGKGLEWVSAISGGSGSTYYADSVKGRFTISRDNSKNTLYLQMNSLRAEDSAVYYCAKDGVGATPYYFDYWGQGTLVTVSS VL: QSVLTQPPSVSAAPGQKVTISCSGSSSNIGINYVSWYQQLPGTAPKLLIYDNNKRPSGIPDRFSGSKSGTSATLGITGLQTGDEADYYCGTWDSSLSAVVFGGGTKLTVL |  |  | 9.96e-12 | 3.58e-11 | 4.23e-10 | 1.52e-10 |
| KL2B872.CLF (antibody, human IgG1, kappa, low fucosylation of the Asn-297-linked N-oligosaccharide (expressed in fucosylation-deficient cells)) heavy: not shown light: DIQMTQSPSFLSASVGDRVTITCRASQGISSYLAWYQQKPGKAPKFLIYAASTLQSGVPSRFSGSGSGTEFTLTISSLQPEDFATYYCQQLNSYPLTFGGGTKVEIKRTVAAPSVFIFPPSDEQLKSGTASVVCLLNNFYPREAKVQWKVDNALQSGNSQESVTEQDSKDSTYSLSSTLTLSKADYEKHKVYACEVTHQGLSSPVTKSFNRGEC | ~85 | 4.12e-10 |  |  |  |  |
| KL2B870.CLF (antibody, human IgG1, kappa, low fucosylation of the Asn-297-linked N-oligosaccharide (expressed in fucosylation-deficient cells)) heavy: not shown light: DIQMTQSPSFLSASVGDRVTITCRASQGISSYLAWYQQKPGKAPKFLIYAASTLQSGVPSRFSGSGSGTEFTLTISSLQPEDFATYYCQQLNSYPLTFGGGTKVEIKRTVAAPSVFIFPPSDEQLKSGTASVVCLLNNFYPREAKVQWKVDNALQSGNSQESVTEQDSKDSTYSLSSTLTLSKADYEKHKVYACEVTHQGLSSPVTKSFNRGEC | ~89 | 3.54e-10 |  |  |  |  |
